For 94 variants, protein stability index results are on record in the supplement of paper PMC10567573.

B1: MYBL2 (parent)
chain: VKKSCWTEEEDRIICEAHKVLGNR
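Note: lentivirally expressed fusions sorted by FACS into six bins by GFP to DsRed ratio, PSI derived from sequencing read proportions per bin multiplied by bin number.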

In this data set the parent is B1. Nature of the data set: protein stability index of a GFP-peptide fusion (GPS, HEK-293T) (PSI 1-6); higher = more stable. As to conditions: c terminus: a fixed tail appended.
In the case of VKKSCWTLEEDRIICEAHKVLGNR [E8L], the protein stability index was 2.69.

Turning to VKKSCWTFEEDRIICEAHKVLGNR [E8F], the protein stability index stood at 2.48. As for VKKSCWTHEEDRIICEAHKVLGNR [E8H], the figure is 3.33; as for VKKSCWTMEEDRIICEAHKVLGNR [E8M], 3.37; as for VKKSCWTGEEDRIICEAHKVLGNR [E8G], 2.44.

Consider VKKSCWTVEEDRIICEAHKVLGNR [E8V], for which the protein stability index is 2.85.

Regarding VKKSCWTREEDRIICEAHKVLGNR [E8R], the protein stability index turned out to be 2.9. Take VKKSCWTNEEDRIICEAHKVLGNR [E8N]: the protein stability index was determined as 4.1. With VKKSCWTIEEDRIICEAHKVLGNR [E8I], the protein stability index was 1.85. As for VKKSCWTCEEDRIICEAHKVLGNR [E8C], the figure is 2.61; as for VKKSCWTKEEDRIICEAHKVLGNR [E8K], 3.17; as for VKKSCWTQEEDRIICEAHKVLGNR [E8Q], 3.5.

Regarding VKKSCWTTEEDRIICEAHKVLGNR [E8T], the protein stability index worked out at 2.45.

In the case of VKKSCWTWEEDRIICEAHKVLGNR [E8W], the protein stability index turned out to be 2.47.

In the case of VKKSCWTPEEDRIICEAHKVLGNR [E8P], the protein stability index worked out at 3.4. Next, VKKSCWTSEEDRIICEAHKVLGNR [E8S]: 3.51; VKKSCWTAEEDRIICEAHKVLGNR [E8A]: 3.12. VKKSCWTDEEDRIICEAHKVLGNR [E8D]: the protein stability index amounted to 3.11.

For the variant VKKSCWTYEEDRIICEAHKVLGNR [E8Y], the protein stability index was determined as 2.79.

For the variant VKKKCWTEEEDRIICEAHKVLGNR [S4K], the protein stability index was 3.49. Next, VKKACWTEEEDRIICEAHKVLGNR [S4A]: 3.31; VKKRCWTEEEDRIICEAHKVLGNR [S4R]: 3; VKKCCWTEEEDRIICEAHKVLGNR [S4C]: 2.53. For VKKECWTEEEDRIICEAHKVLGNR [S4E], the protein stability index came to 3.82. As for VKKQCWTEEEDRIICEAHKVLGNR [S4Q], the figure is 3.17; as for VKKLCWTEEEDRIICEAHKVLGNR [S4L], 3.33; as for VKKICWTEEEDRIICEAHKVLGNR [S4I], 3.21. Regarding VKKWCWTEEEDRIICEAHKVLGNR [S4W], the protein stability index amounted to 1.98. Next, VKKMCWTEEEDRIICEAHKVLGNR [S4M]: 3.06.

VKKFCWTEEEDRIICEAHKVLGNR [S4F]: the protein stability index was found to be 2.83.

As for VKKHCWTEEEDRIICEAHKVLGNR [S4H], the protein stability index was 2.77. Next, VKKVCWTEEEDRIICEAHKVLGNR [S4V]: 3.41; VKKYCWTEEEDRIICEAHKVLGNR [S4Y]: 2.27. Next, VKKNCWTEEEDRIICEAHKVLGNR [S4N]: 3.51; VKKGCWTEEEDRIICEAHKVLGNR [S4G]: 3.53.

Regarding VKKDCWTEEEDRIICEAHKVLGNR [S4D], the protein stability index was 3.58. With VKKTCWTEEEDRIICEAHKVLGNR [S4T], the protein stability index came to 2.97.

As for VKKPCWTEEEDRIICEAHKVLGNR [S4P], the protein stability index was 3.49. As for VKKSCWKEEEDRIICEAHKVLGNR [T7K], the figure is 3.51; as for VKKSCWAEEEDRIICEAHKVLGNR [T7A], 2.98. VKKSCWYEEEDRIICEAHKVLGNR [T7Y]: the protein stability index is 2.93.

As to VKKSCWHEEEDRIICEAHKVLGNR [T7H], the protein stability index was found to be 2.95.

In the case of VKKSCWCEEEDRIICEAHKVLGNR [T7C], the protein stability index was found to be 3.05. Next, VKKSCWLEEEDRIICEAHKVLGNR [T7L]: 3.11; VKKSCWNEEEDRIICEAHKVLGNR [T7N]: 3.14.

For VKKSCWVEEEDRIICEAHKVLGNR [T7V], the protein stability index stood at 3.54. Next, VKKSCWIEEEDRIICEAHKVLGNR [T7I]: 4; VKKSCWFEEEDRIICEAHKVLGNR [T7F]: 2.2; VKKSCWWEEEDRIICEAHKVLGNR [T7W]: 2.32. As for VKKSCWGEEEDRIICEAHKVLGNR [T7G], the figure is 3.02.

Turning to VKKSCWDEEEDRIICEAHKVLGNR [T7D], the protein stability index stood at 3.76. Next, VKKSCWPEEEDRIICEAHKVLGNR [T7P]: 3.65; VKKSCWQEEEDRIICEAHKVLGNR [T7Q]: 2.59.

On to VKKSCWEEEEDRIICEAHKVLGNR [T7E], for which the protein stability index came to 2.82. VKKSCWSEEEDRIICEAHKVLGNR [T7S]: the protein stability index stood at 2.83. With VKKSCWMEEEDRIICEAHKVLGNR [T7M], the protein stability index amounted to 3.03.

On to VKKSCWREEEDRIICEAHKVLGNR [T7R], for which the protein stability index turned out to be 3.59. Next, VKKSCPTEEEDRIICEAHKVLGNR [W6P]: 4.4. As for VKKSCATEEEDRIICEAHKVLGNR [W6A], the figure is 3.92.

On to VKKSCMTEEEDRIICEAHKVLGNR [W6M], for which the protein stability index was 3.99. Next, VKKSCETEEEDRIICEAHKVLGNR [W6E]: 4.7; VKKSCYTEEEDRIICEAHKVLGNR [W6Y]: 3.5. Regarding VKKSCVTEEEDRIICEAHKVLGNR [W6V], the protein stability index stood at 3.5. As for VKKSCFTEEEDRIICEAHKVLGNR [W6F], the figure is 3.54; as for VKKSCLTEEEDRIICEAHKVLGNR [W6L], 3.85. As for VKKSCCTEEEDRIICEAHKVLGNR [W6C], the figure is 4.48; as for VKKSCSTEEEDRIICEAHKVLGNR [W6S], 4.09. Next, VKKSCKTEEEDRIICEAHKVLGNR [W6K]: 4.05; VKKSCNTEEEDRIICEAHKVLGNR [W6N]: 4.17; VKKSCTTEEEDRIICEAHKVLGNR [W6T]: 3.94. Consider VKKSCRTEEEDRIICEAHKVLGNR [W6R], for which the protein stability index is 3.87.

In the case of VKKSCGTEEEDRIICEAHKVLGNR [W6G], the protein stability index amounted to 3.97. Consider VKKSCQTEEEDRIICEAHKVLGNR [W6Q], for which the protein stability index stood at 4.36. Next, VKKSCITEEEDRIICEAHKVLGNR [W6I]: 3.7. Next, VKKSCDTEEEDRIICEAHKVLGNR [W6D]: 4.33; VKKSCHTEEEDRIICEAHKVLGNR [W6H]: 3.07; VKKSCWTEEEDRFICEAHKVLGNR [I13F]: 3. Next, VKKSCWTEEEDRCICEAHKVLGNR [I13C]: 2.77; VKKSCWTEEEDRAICEAHKVLGNR [I13A]: 4.41; VKKSCWTEEEDRGICEAHKVLGNR [I13G]: 4.41. Turning to VKKSCWTEEEDREICEAHKVLGNR [I13E], the protein stability index was determined as 3.5. Next, VKKSCWTEEEDRDICEAHKVLGNR [I13D]: 4.37. Next, VKKSSWTEEEDRIICEAHKVLGNR [C5S]: 4.1; VKKSQWTEEEDRIICEAHKVLGNR [C5Q]: 4.21; VKKSWWTEEEDRIICEAHKVLGNR [C5W]: 2.73. Next, VKKSLWTEEEDRIICEAHKVLGNR [C5L]: 2.01.

For the variant VKKSIWTEEEDRIICEAHKVLGNR [C5I], the protein stability index worked out at 3.24. As for VKKSNWTEEEDRIICEAHKVLGNR [C5N], the figure is 3.38; as for VKKSGWTEEEDRIICEAHKVLGNR [C5G], 3.75. As for VKKSMWTEEEDRIICEAHKVLGNR [C5M], the figure is 3. Next, VKKSPWTEEEDRIICEAHKVLGNR [C5P]: 3.69; VKKSTWTEEEDRIICEAHKVLGNR [C5T]: 3.79; VKKSKWTEEEDRIICEAHKVLGNR [C5K]: 3.53. On to VKKSDWTEEEDRIICEAHKVLGNR [C5D], for which the protein stability index came out at 3.77.
